Measurements taken from the supplement of paper PMC9112550, “Optimization of the antimicrobial peptide Bac7 by deep mutational scanning” (BMC Biology, 2022).

The sequences below were run on Escherichia coli TOP10 (assay: shrunken log2 fold change of peptide-encoding DNA abundance (4.5 h post-induction vs induction); higher = less antimicrobial activity (less host growth inhibition)). Settings: time post-induction: 4.5 h; library: site-saturation at positions 5, 18, 19, 20.
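Also: peptides expressed intracellularly from a pBAD plasmid library in pooled LB shake-flask culture, induced with 0.3% L-arabinose, DNA abundance read by NGS, three biological replicates, DESeq2 with apeglm shrinkage.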

Sequence | shrunken log2 fold change
RRIRARPPRLPRPRPRPYCAPRP | -0.277
RRIRERPPRLPRPRPRPFKEPRP | -0.346
RRIRFRPPRLPRPRPRPVPCPRP | 0.0335
RRIRIRPPRLPRPRPRPSSQPRP | -0.674
RRIRYRPPRLPRPRPRPQEVPRP | 0.013
RRIRSRPPRLPRPRPRPLVFPRP | -0.0421
RRIRYRPPRLPRPRPRPNHHPRP | -1.19
RRIRNRPPRLPRPRPRPESIPRP | -0.24
RRIRTRPPRLPRPRPRPNKKPRP | -0.26
RRIRTRPPRLPRPRPRPSVTPRP | -0.0217
RRIRVRPPRLPRPRPRPFGVPRP | -0.179
RRIRGRPPRLPRPRPRPWAYPRP | -0.151
RRIRNRPPRLPRPRPRPPCTPRP | -0.234
RRIRQRPPRLPRPRPRPYRMPRP | 3.17
RRIRTRPPRLPRPRPRPHKIPRP | -0.587
RRIRQRPPRLPRPRPRPIDNPRP | -0.36
RRIRWRPPRLPRPRPRPAERPRP | 0.0973
RRIRFRPPRLPRPRPRPEVNPRP | 0.0557
RRIRFRPPRLPRPRPRPWPAPRP | -0.0371
RRIRFRPPRLPRPRPRPYIWPRP | -0.425
RRIRFRPPRLPRPRPRPMLAPRP | 0.0819
RRIRRRPPRLPRPRPRPQIYPRP | -0.1

Sequence | shrunken log2 fold change
RRIRCRPPRLPRPRPRPMCYPRP | -0.244
RRIRKRPPRLPRPRPRPTELPRP | 0.876
RRIRRRPPRLPRPRPRPGGGPRP | 0.841
RRIRKRPPRLPRPRPRPWMIPRP | 0.0508
RRIRMRPPRLPRPRPRPSNTPRP | -0.0896
RRIRWRPPRLPRPRPRPQAFPRP | 0.0509
RRIRKRPPRLPRPRPRPMNKPRP | 0.0136
RRIRNRPPRLPRPRPRPHWPPRP | 0.0957
RRIRFRPPRLPRPRPRPLVVPRP | -0.0929
RRIRHRPPRLPRPRPRPTNAPRP | -0.463
RRIRNRPPRLPRPRPRPMMQPRP | -0.208
RRIRGRPPRLPRPRPRPFDLPRP | -0.24
RRIRGRPPRLPRPRPRPFELPRP | 0.0951
RRIRRRPPRLPRPRPRPAEPPRP | 0.723
RRIRYRPPRLPRPRPRPMGKPRP | -0.452
RRIRSRPPRLPRPRPRPYKMPRP | -0.425
RRIRQRPPRLPRPRPRPTHEPRP | 0.881
RRIRWRPPRLPRPRPRPWSCPRP | -0.169
RRIRLRPPRLPRPRPRPYQDPRP | -0.106
RRIRVRPPRLPRPRPRPRQVPRP | 0.0645
RRIRDRPPRLPRPRPRPVHNPRP | -0.585
RRIRPRPPRLPRPRPRPKADPRP | 0.0968

Sequence | shrunken log2 fold change
RRIRFRPPRLPRPRPRPEQWPRP | -0.156
RRIRCRPPRLPRPRPRPAHQPRP | 0.133
RRIRKRPPRLPRPRPRPTPDPRP | 0.559
RRIRDRPPRLPRPRPRPRYEPRP | 0.223
RRIRWRPPRLPRPRPRPCGRPRP | 0.376
RRIRGRPPRLPRPRPRPQERPRP | 0.595
RRIRSRPPRLPRPRPRPCGIPRP | -0.0619
RRIRERPPRLPRPRPRPDYMPRP | 0.0229
RRIRPRPPRLPRPRPRPMKFPRP | -0.248
RRIRSRPPRLPRPRPRPMLAPRP | 0.244
RRIRGRPPRLPRPRPRPGTYPRP | -0.201
RRIRWRPPRLPRPRPRPHFEPRP | -0.165
RRIRARPPRLPRPRPRPCKPPRP | -0.331
RRIRGRPPRLPRPRPRPIGSPRP | 0.45
RRIRARPPRLPRPRPRPQTGPRP | 0.242
RRIRVRPPRLPRPRPRPIRHPRP | -0.112
RRIRQRPPRLPRPRPRPHSQPRP | 0.0419
RRIRHRPPRLPRPRPRPRMGPRP | -0.00555
RRIRIRPPRLPRPRPRPCYLPRP | -0.0394
RRIRLRPPRLPRPRPRPLWHPRP | 0.0621
RRIRYRPPRLPRPRPRPLMLPRP | -1.32
RRIRARPPRLPRPRPRPEVEPRP | 1.3

Sequence | shrunken log2 fold change
RRIRKRPPRLPRPRPRPLDHPRP | 0.118
RRIRWRPPRLPRPRPRPSEVPRP | -0.0251
RRIRPRPPRLPRPRPRPSGVPRP | -0.0831
RRIRIRPPRLPRPRPRPMASPRP | -0.00783
RRIRRRPPRLPRPRPRPRMAPRP | 0.294
RRIRLRPPRLPRPRPRPMFFPRP | -0.381
RRIRTRPPRLPRPRPRPAQFPRP | -0.0946
RRIRNRPPRLPRPRPRPFIMPRP | -0.889
RRIRLRPPRLPRPRPRPINDPRP | -0.35
RRIRHRPPRLPRPRPRPNCDPRP | -0.264
RRIRMRPPRLPRPRPRPFDEPRP | -0.0062
RRIRPRPPRLPRPRPRPFYEPRP | -0.105
RRIRYRPPRLPRPRPRPGYGPRP | -0.541
RRIRERPPRLPRPRPRPLNLPRP | -0.312
RRIRERPPRLPRPRPRPNDAPRP | -0.19
RRIRDRPPRLPRPRPRPIWWPRP | 0.498
RRIRDRPPRLPRPRPRPMLIPRP | -0.0943
RRIRLRPPRLPRPRPRPERTPRP | 0.098
RRIRWRPPRLPRPRPRPSMCPRP | -0.16
RRIRQRPPRLPRPRPRPKMPPRP | -0.0283
RRIRTRPPRLPRPRPRPHAGPRP | -0.0835
RRIRWRPPRLPRPRPRPTCVPRP | 0.145

Sequence | shrunken log2 fold change
RRIRHRPPRLPRPRPRPCKIPRP | -0.036
RRIRPRPPRLPRPRPRPEWCPRP | -0.0771
RRIRGRPPRLPRPRPRPSASPRP | 1.77
RRIRDRPPRLPRPRPRPHPWPRP | 0.114
RRIRVRPPRLPRPRPRPYKGPRP | -0.294
RRIRHRPPRLPRPRPRPFRYPRP | -0.737
RRIRWRPPRLPRPRPRPFMDPRP | -0.41
RRIRWRPPRLPRPRPRPENGPRP | -0.109
RRIRERPPRLPRPRPRPAFCPRP | -0.21
RRIRARPPRLPRPRPRPSIKPRP | -0.133
RRIRSRPPRLPRPRPRPPPHPRP | 0.752
RRIRDRPPRLPRPRPRPRFLPRP | -0.201
RRIRLRPPRLPRPRPRPVVKPRP | -0.166
RRIRWRPPRLPRPRPRPWHNPRP | -0.203
RRIRTRPPRLPRPRPRPFSIPRP | -0.284
RRIRQRPPRLPRPRPRPLSRPRP | -0.0591
RRIRTRPPRLPRPRPRPANGPRP | -0.213
RRIRRRPPRLPRPRPRPGDDPRP | 0.362
RRIRTRPPRLPRPRPRPTGAPRP | 0.323
RRIRLRPPRLPRPRPRPPWDPRP | 0.344
RRIRERPPRLPRPRPRPILQPRP | -0.518
